For assay [1], the target named is T1, CD38 (human), analyte in Biacore (human, UniProt P28907 43-300, limits assumed).
T1 construct: also called 分析物CD38; 人的CD38蛋白
Nature of the assay: SPR (Biacore 8K), antibody captured on Protein A chip, CD38 as analyte, 25℃.

Assay [2] has as its target CD38 antigen on the cell surface (Daudi cells; NCI-H929 cells) (human, UniProt P28907 1-300). Kind of assay: cell-based or functional assay.

B1: RB0021-S3 (antibody)
chain 1: not shown
chain 2: DVQMTQSPSSVSASVGDRVTITCRSSQSPEHSNGNTYLHWYQQKPGKAPKLLIYKVSNRFSGVPSRFSGSGSGTDFTLTISSLQPEDFATYFCSQGTHFPFTFGQGTKVEIKRTVAAPSVFIFPPSDEQLKSGTASVVCLLNNFYPREAKVQWKVDNALQSGNSQESVTEQDSKDSTYSLSSTLTLSKADYEKHKVYACEVTHQGLSSPVTKSFNRGEC
Take B1: the affinity in assay [1], expressed as Kd, was 1.04 nM. The “ADCC reporter (Jurkat-Lucia-NFAT-CD16 + NCI-H929), EC50(μg/mL)” value in assay [2] came out at 0.011 µg/mL.

B2: RB0021-S4 (antibody)
chain 1: not shown
chain 2: DVQMTQSPSSVSASVGDRVTITCRSSQSPEHSNGNTYLHWYQQKPGKAPKLLIYKVSNRFSGVPSRFSGSGSGTDFTLTISSLQPEDFATYFCSQGTHFPFTFGQGTKVEIKRTVAAPSVFIFPPSDEQLKSGTASVVCLLNNFYPREAKVQWKVDNALQSGNSQESVTEQDSKDSTYSLSSTLTLSKADYEKHKVYACEVTHQGLSSPVTKSFNRGEC
The molecule B2 yielded a Kd in assay [1] of 1.04 nM. Besides, the “ADCC reporter (Jurkat-Lucia-NFAT-CD16 + NCI-H929), EC50(μg/mL)” value in assay [2] was determined as 0.014 µg/mL.

The record behind these values is patent CN114075285A (REYOUNG SUZHOU BIOPHARMACEUTICAL CO LTD, dated 2022).
